{
  "source": "patent US20210332146A1",
  "about": "(ACADEMIA SINICA, published 2021)",
  "binders": {"B1": {"name": "Rituximab (antibody, human IgG1, kappa)", "heavy": "not shown", "light": "QIVLSQSPAILSASPGEKVTMTCRASSSVSYIHWFQQKPGSSPKPWIYATSNLASGVPVRFSGSGSGTSYSLTISRVEAEDAATYYCQQWTSNPPTFGGGTKLEIKRTVAAPSVFIFPPSDEQLKSGTASVVCLLNNFYPREAKVQWKVDNALQSGNSQESVTEQDSKDSTYSLSSTLTLSKADYEKHKVYACEVTHQGLSSPVTKSFNRGEC", "modifications": "heterogeneous N-glycans at Asn-297 of the Fc (more than 50 glycoforms; greater than 90% of N-glycans are fucosylated)", "notes": "Chimeric anti-CD20 IgG made in CHO cells, purchased from Genentech; DrugBank DB00073; also called Rituxan; RTX"}, "B2": {"name": "anti-CD20 GAb101 (antibody, human IgG1, kappa)", "heavy": "not shown", "light": "B1 light", "modifications": "homogeneous N-glycan at Asn-297, no core fucose: glycan-101 (Sia2Gal2GlcNAc2Man3GlcNAc) transferred onto the GlcNAc of GAb201; 2,6 sialic acid linkage", "notes": "the text gives them the other way round"}, "B3": {"name": "anti-CD20 GAb104 (antibody, human IgG1, kappa)", "heavy": "not shown", "light": "B1 light", "modifications": "homogeneous N-glycan at Asn-297, no core fucose: glycan-104 (Gal2GlcNAc2Man3GlcNAc) transferred onto the GlcNAc of GAb201", "notes": "as for B2"}, "B4": {"name": "anti-CD20 GAb105 (antibody, human IgG1, kappa)", "heavy": "not shown", "light": "B1 light", "modifications": "homogeneous N-glycan at Asn-297, no core fucose: glycan-105 (GalGlcNAc2Man3GlcNAc) transferred onto the GlcNAc of GAb201", "notes": "as for B2"}, "B5": {"name": "anti-CD20 GAb106 (antibody, human IgG1, kappa)", "heavy": "not shown", "light": "B1 light", "modifications": "homogeneous N-glycan at Asn-297, no core fucose: glycan-106 (GalGlcNAcMan3GlcNAc) transferred onto the GlcNAc of GAb201", "notes": "as for B2"}, "B6": {"name": "anti-CD20 GAb102 (antibody, human IgG1, kappa)", "heavy": "not shown", "light": "B1 light", "modifications": "homogeneous N-glycan at Asn-297, no core fucose: glycan-102 (SiaGal2GlcNAc2Man3GlcNAc) transferred onto the GlcNAc of GAb201", "notes": "as for B2"}},
  "key": {"CD20 [1]": {"molecular_target": "T1, CD20 (human, UniProt P11836 1-297)", "T1 construct": "whole, on cells; Target on B-lymphoma cells in flow cytometry; also called CD20 antigen; B-lymphocyte-restricted differentiation antigen", "T1 sequence (looked up)": "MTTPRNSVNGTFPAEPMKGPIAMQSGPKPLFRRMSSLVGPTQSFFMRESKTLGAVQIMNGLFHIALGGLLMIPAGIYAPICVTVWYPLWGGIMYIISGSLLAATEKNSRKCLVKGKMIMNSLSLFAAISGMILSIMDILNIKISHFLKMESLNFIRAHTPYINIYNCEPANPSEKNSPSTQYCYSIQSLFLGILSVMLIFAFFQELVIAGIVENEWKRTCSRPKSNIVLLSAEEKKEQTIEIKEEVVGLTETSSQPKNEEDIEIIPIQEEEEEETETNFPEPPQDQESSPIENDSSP", "assay": "flow cytometry on SUDHL4 (SU-DHL4) cells, MFI against antibody concentration"}, "[2]": {"molecular_target": "T2, FcγRIIIA recombinant protein (UniProt P08637 17-208, limits assumed)", "T2 construct": "also called FcRIIIA", "T2 sequence (P08637 17-208 limits assumed)": "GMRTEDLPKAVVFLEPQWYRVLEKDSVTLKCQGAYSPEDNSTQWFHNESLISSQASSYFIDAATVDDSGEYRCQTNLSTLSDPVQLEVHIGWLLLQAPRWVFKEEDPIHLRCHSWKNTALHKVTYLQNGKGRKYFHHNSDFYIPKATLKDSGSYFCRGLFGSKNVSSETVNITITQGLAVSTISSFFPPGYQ", "assay": "SPR, Biacore T200; antibody captured on anti-human Fab chip, FcγRIIIA injected (12.5-200 nM), single cycle kinetics, 1:1 model; Rituxan reference, not glycoengineered; upper end of the range", "procedure": "(§1) FcγRIIIA was transfected into HEK-293 cell line to express recombinant protein. The secreted FcγRIIIA recombinant protein was purified and then diluted to serial concentration in HBS-EP buffer (200 nM, 100 nM, 50 nM, 25 nM, and 12.5 nM). […] A serial titration of FcγRIIIA was injected and bound at the flow rate of […]. Single cycle kinetics data was fitted into 1:1 binding model using Biacore T200 evaluation software to measure the equilibrium constant (Ka/Kd)."}, "[3]": {"molecular_target": "T2, FcγRIIIA recombinant protein", "assay": "SPR, Biacore T200; antibody captured on anti-human Fab chip, FcγRIIIA injected (12.5-200 nM), single cycle kinetics, 1:1 model", "procedure": "as §1"}, "CD20 [4]": {"molecular_target": "T1, CD20", "assay": "flow cytometry on Ramos cells (CD20+ B lymphoma), MFI against antibody concentration", "procedure": "Binding to B-lymphoma cells. The binding of the antibodies was investigated in CD20⁺ B lymphoma cell lines (Ramos and SKW6.4) and analyzed on flow cytometry. The cells in PBS containing 1% fetal bovine serum at 2×10⁵/well on microplate were incubated on ice for 1 hr with antibodies of interest at different concentrations. The cells are washed, re-suspended in the PBS buffer, and incubated with the detecting goat anti-hIgG-Fcγ-PE on ice for 30 min. The cells are washed and subjected to analysis on FACS."}, "[5]": {"molecular_target": "T2, FcγRIIIA recombinant protein", "assay": ">", "procedure": "as §1"}, "[6]": {"molecular_target": "T2, FcγRIIIA recombinant protein", "assay": "SPR as above; category letter explained in the note of Table 4", "procedure": "as §1"}},
  "data": [
    {"binder": "B1", "values": [
      {"measurement": "EC50 (read off the curve)", "setting": "CD20 [1]", "value": "~0.6", "unit": "µg/mL"},
      {"measurement": "Kd", "setting": "[2]", "value": "≤ 300", "unit": "nM"},
      {"measurement": "Kd", "setting": "[3]", "value": 100, "unit": "nM"},
      {"measurement": "EC50 (read off the curve)", "setting": "CD20 [4]", "value": "~0.6", "unit": "µg/mL"}
    ]},
    {"binder": "B2", "values": [
      {"measurement": "EC50 (read off the curve)", "setting": "CD20 [1]", "value": "~0.7", "unit": "µg/mL"},
      {"measurement": "Fold (increase against Rituxan)", "setting": "[5]", "value": 30, "unit": "fold"}
    ]},
    {"binder": "B3", "values": [
      {"measurement": "Fold (increase against Rituxan)", "setting": "[6]", "value": "> 30", "unit": "fold"}
    ]},
    {"binder": "B4", "values": [
      {"measurement": "Fold (increase against Rituxan)", "setting": "[6]", "value": "> 30", "unit": "fold"}
    ]},
    {"binder": "B5", "values": [
      {"measurement": "Kd", "setting": "[3]", "value": "7 to 30", "unit": "nM"}
    ]},
    {"binder": "B6", "values": [
      {"measurement": "Fold (increase against Rituxan)", "setting": "[6]", "value": "> 30", "unit": "fold"}
    ]}
  ]
}
